Molecular target: telomerase of HT1080 cells (telomerase-containing fraction, or cellular telomerase in stable HT1080 lines) (human) (UniProt O14746)
Test: cell-based or functional assay

Sequence of telomerase of HT1080 cells (telomerase-containing fraction, or cellular telomerase in stable HT1080 lines) (human) (O14746 whole entry): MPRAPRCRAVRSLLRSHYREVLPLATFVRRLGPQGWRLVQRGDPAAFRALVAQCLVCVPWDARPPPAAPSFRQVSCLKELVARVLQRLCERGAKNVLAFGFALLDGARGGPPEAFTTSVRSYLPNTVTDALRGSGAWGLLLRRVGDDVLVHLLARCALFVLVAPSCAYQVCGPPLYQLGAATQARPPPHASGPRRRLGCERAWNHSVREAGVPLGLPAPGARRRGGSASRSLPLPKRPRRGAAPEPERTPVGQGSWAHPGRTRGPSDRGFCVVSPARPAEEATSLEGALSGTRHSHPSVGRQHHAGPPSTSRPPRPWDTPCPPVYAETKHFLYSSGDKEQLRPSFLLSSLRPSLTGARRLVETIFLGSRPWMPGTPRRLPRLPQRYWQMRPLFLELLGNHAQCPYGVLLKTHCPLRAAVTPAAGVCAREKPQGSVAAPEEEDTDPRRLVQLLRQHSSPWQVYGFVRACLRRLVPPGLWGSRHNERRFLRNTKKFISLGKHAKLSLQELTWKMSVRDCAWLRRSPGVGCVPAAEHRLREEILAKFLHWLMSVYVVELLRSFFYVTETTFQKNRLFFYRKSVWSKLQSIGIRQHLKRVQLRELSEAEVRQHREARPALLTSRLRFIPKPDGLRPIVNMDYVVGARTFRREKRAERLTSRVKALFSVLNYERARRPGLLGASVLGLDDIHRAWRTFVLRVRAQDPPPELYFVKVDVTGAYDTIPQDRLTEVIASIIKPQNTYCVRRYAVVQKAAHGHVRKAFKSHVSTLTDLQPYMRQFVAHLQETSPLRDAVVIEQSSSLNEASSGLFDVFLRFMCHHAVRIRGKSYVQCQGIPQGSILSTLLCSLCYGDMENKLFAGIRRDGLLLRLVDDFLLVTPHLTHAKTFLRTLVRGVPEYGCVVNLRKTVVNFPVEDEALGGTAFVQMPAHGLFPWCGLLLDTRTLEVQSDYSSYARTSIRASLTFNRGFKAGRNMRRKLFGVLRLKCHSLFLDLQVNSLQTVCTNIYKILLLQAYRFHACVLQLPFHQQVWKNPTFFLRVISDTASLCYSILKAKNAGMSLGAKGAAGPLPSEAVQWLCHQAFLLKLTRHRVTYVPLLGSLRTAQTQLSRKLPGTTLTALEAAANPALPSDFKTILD

IC50 of inhibition of telomerase activity in vitro (TRAP assay): 25 nM
Substance: His-PinX1 (N-terminal His fusion of PinX1, pET28a) (from UniProt Q96BK5 1-328)

Reference: patent US20040142357A1
